# Residue numbers refer to the chain shown, from its start. Names may count otherwise.
# B1: extracellular domain of ZIP4 from Pteropus alecto (black fruit bat), wild type (domain or fragment)
# chain: SGQGALDRVALGGLLNTLAARVHCTSGPCGKCLSVDDLLALGRPEEPGHLARLSAAAALYLSDPEGTCEDIRAGRWASRADHLLALLEGPKALAPGLSRLLQRIQAQTTGQPSAGEACVDPPQLLREAGVAGAPGSPGPVLATLLEHVGRGSCFHTLPTPQYFVDFVFQQSHGNTPNISVAELAALMQRLGVGGVTETHSDHHHQEKRVNRQGPTPLTAPNSSSDTWDTVCLSARDVMAVYGLSEQTGVTPEAWAQLSPALLQQQLSGACSPQPSHPAQNQLSQAEK
# B2: pZIP4-ECD R87C variant (domain or fragment)
# chain: B1 chain with R52C
# B3: pZIP4-ECD Q299H variant (domain or fragment)
# chain: B1 chain with Q264H
# B4: pZIP4-ECD P193L variant (domain or fragment)
# chain: B1 chain with P158L
# B5: pZIP4-ECD C64R variant (domain or fragment)
# chain: B1 chain with C29R
# B6: pZIP4-ECD A91T variant (domain or fragment)
# chain: B1 chain with A56T
# Biological target: the molecule itself
# Assay: SEC
row,Protein,stoichiometry N
1,B1,2
2,B2,2
3,B3,2
4,B4,2
5,B5,2
6,B6,2

# From publication doi:10.1101/2020.08.16.253294 (bioRxiv, 2020)
